Assay results published in patent US9073976B2, “ND2 peptides and methods of treating neurological disease” (NoNO Inc., priority 2010, dated 2015).
Entries after “also recorded” stand apart in the source; their conditions may differ. No end group written: not given here. *: point of attachment. Myristoyl = CCCCCCCCCCCCCC(=O)*

What was measured:
rats subjected to 3PVO = test: Three pial vessel occlusion (3PVO) model of stroke, infarct volume; type: in vivo, rat
Procedure: The efficacy of ND2 inhibitors in the treatment of stroke was examined using the three pial vessel occlusion (3PVO) model of stroke. This is a permanent model of stroke that creates small but consistent infarcts at 24 hours.
Male Sprague Dawley rats (n=10 in each group) were surgically subjected to permanent occlusion of the pial vessels. One hour post-surgery, animals were given an intravenous injection of Saline, Tat-NR2B9c (Aarts et al, Science, 2002), Src 40-49-Tat or Tat-ND2 310-321 and allowed to further recover in their cages. 24 hours after surgery, brains were harvested, sliced and incubated with TTC to visualize the areas of infarction. The infarct volume of each animal was determined, as well as the average volumes for each group of ten.
Both peptides were myristoylated via an amide bond to the alpha-amino group of the N-terminal amino acid of the peptide.
Male Sprague Dawley rats (n=10 in each group) weighing between 230 and 290 g were used for this study. Experiments were performed on fasted rats (Free overnight access to water but not food). For permanent three pial vessel occlusion (3PVO) was performed as described previously (Forder J et al., 2005, supra). In brief, rats were anesthetized with a 0.5 ml/kg intramuscular injection of ketamine (100 mg/kg), acepromazine (2 mg/kg), and xylazine (5 mg/kg), supplemented with one-third of the initial dose as required. An anal temperature probe was inserted, and the animal was placed on a heating pad maintained at 37° C. The skull was exposed via a midline incision and scraped free of tissue. Using a dissecting microscope and a pneumatic dental drill, a 6- to 8-mm cranial window was made over the right somatosensory cortex (2 mm caudal and 5 mm lateral to bregma) by drilling a rectangle through the skull and lifting off the piece of skull while keeping the dura intact. The 3 pial arteriolar middle cerebral artery branches around the barrel cortex were selected and electrically cauterized through the dura. After the cauterizations, the scalp was sutured. […]

[1] = biological target: T1, ND2, Src, NMDAR subunits, and PSD95 in hippocampal neurons (Rattus norvegicus, UniProt P11662+Q9WUD9); test: Immunocytochemistry colocalization in 14DIV hippocampal neurons; type: cell-based; conditions: 1 uM peptide for 1 h, day 14 neurons
T1 construct: endogenous in cells; host or cells: primary hippocampal neurons from E17/E18 Wistar rats, 14 DIV
Procedure: A series of experiments was performed to examine the localization of ND2, Src, NMDAR subunits, and PSD95 in hippocampal neurons by immunocytochemistry in the presence of Tat, Tat-ND2 310-321, or Src 40-49-Tat. Briefly, hippocampal neurons were isolated from embryonic day #17/E18 Wistar rats, and cultured in neurobasal media containing coverslips with B27 and glutamax. Cells were then treated for 1 hr with luM peptide before fixing by standard methods. Proteins were visualized using specific antibodies and secondary antibodies coupled to fluorescent molecules. Colocalization of fluorescence was calculated by merging the images in Photoshop and calculating the % colocalized between pairs as the total colocalized fluorescence clusters divided by the total number of clusters (e.g., % colocalized ND2 with Src=(total colocalized)/(total ND2 clusters); % colocalized Src with ND2=(total colocalized)/(total Src clusters)).
Hippocampal neurons cultured on coverslips were treated with 1 uM of Src 40-49-Tat, Tat-ND2 310-321 or Tat for 1 h at the day 14. Then neurons were incubated in 4% paraformaldehyde and 4% sucrose in phosphate-buffered saline (PBS) for 10 minutes followed by 5 minutes […] at room temperature (RT). Cells were permeabilized with 0.25% Triton X-100 in PBS for 5 minutes and by treatment with 5% donkey serum in PBS for 30 minutes at RT. The cultures were incubated with a mixture of the primary antibodies, raised in various species, in 0.25% Triton X-100 PBS for 2 hours at RT, washed, and incubated for 1 hour at RT with a mixture of species-specific secondary antibodies all raised in donkey and conjugated to either Texas Red, or FITC fluorophores (1:200 dilution in 0.25% Triton X-100 PBS). The coverslips were washed with PBS and mounted using ProLong Gold antifade reagent (Invitrogen). Images were collected using a 60× pan-fluor objective on a Nikon Eclipse TE 200 microscope. The images were analyzed with PhotoShop 7 (Adobe, San Jose, Calif.). Brightness and contrast were adjusted, sharpened using the unsharpen mask tool, and the images were merged for color colocalization.
For quantification of the colocalization, the maximum intensities of the fluorophore channels were normalized and the background fluorescence of each channel seen in the dendrites was subtracted, the color images were merged. Two clusters in two different channels were considered colocalizing when at least 66% of the surface of one clusters in one of the two channels overlapped with a clusters in the other channel. For each combination of antibodies, three independent immunofluorescence experiments were done. Each measurement was taken from a 50-m-long dendritic segment (with an average width of 2 m). Colocalization was expressed as the percent of the total clusters analyzed.

Tat-ND2 310-321 = biological target: T2, Tat-ND2 310-321 (Homo sapiens, UniProt P03891); test: ELISA plate coated with Tat-ND2 310-321, binding of biotinylated Src peptides; conditions: FIG. 5C
T2 construct: 10; Tat-ND2 310-321; […]
Procedure: (§1) Src40-49-Tat indicate a fusion peptide in which the human HIV-1 tat protein transduction domain [[…]] […] (SEQ ID NO:10). […] The peptides were plated at a concentration of ˜5 uM.

Src 40-58 [2] = biological target: T3, Src 40-58 (Homo sapiens, UniProt P12931, A55V); test: Dot blot of GST-ND2 fragments probed with biotinylated Src 40-58; type: binding; conditions: GST-fusion proteins spotted 1-10 ug, biotinylated peptide ~15 ug/ml, 2 hours
T3 construct: KPASADGHRG P SAAFVPAA
Procedure: GST-fusion proteins were designed using different fragments of ND2 and expressed and purified using standard protocols. These purified proteins were spotted onto membranes for probing with biotinylated Src 40-58 peptide or a scrambled control peptide (sSrc 40-58). In general, 1-10 ug of peptide or recombinant protein was spotted onto nitrocellulose and dried overnight. Membranes were blocked with 5% milk for 1 h at room temperature, then incubated with biotinylated peptides (˜15 ug/ml) for 2 hours the washed using standard wash buffers. Bound probe was detected using a short incubation with streptavidin conjugated to horseradish peroxidase (SA-HRP) and standard detection reagents, predominantly chemiluminescence kits. […] Further GST-constructs were made to narrow the core Src binding regions (FIG. 2A). Dot blots were made with these constructs and tested for their ability to capture biotinylated Src 40-58 (FIG. 2B).
(§2) Further GST constructs were made to identify the amino acid sequences in ND2.1.4 responsible for binding to Src 40-58 (FIG. 3A). Although these sequences are minimally responsible for binding, sequences corresponding to ND2 these sequences as well as those flanking them could be used for inhibition of the Src-ND2 interaction. […] As before, interactions with all of the fragments were confirmed in an ELISA assay (FIG. 3C), and the top binders were ND2 310-321, ND2 289-309, ND2 299-318, ND2 307-321 and full length ND2. […] All fragments tested were able to bind Src40-58 more strongly than the negative control peptide sSrc 40-58.

Src 40-58 [3] = biological target: T3, Src 40-58; test: ELISA of coated ND2 constructs with biotin-Src 40-58; type: binding; conditions: biotin-Src 40-58 at 6 uM
Procedure: GST-ND2, GST-ND2.1 or GST-ND2.1.4 were coated onto ELISA wells by incubating at the indicated concentration under standard conditions. Wells were blocked using 5% milk, and either biotin-Src 40-58 (FIG. 2C top) or biotin-sSrc 40-58 (bottom) were incubated at 6 uM.
as §2

Src 40-49 [4] = biological target: T4, Src 40-49 (Homo sapiens, UniProt P12931); test: Dot blot of ND2 constructs binding Src 40-49; conditions: FIG. 4A
T4 construct: KPASADGHRG
Excerpt: (§3) We next examined the ability of the ND2 constructs to bind to a shorter version of the Src binding domain—Src 40-49 (FIGS. 4A, B). ND2 310-321, ND2 307-318, and ND2 310-318 were the top binders of Src 40-49 by dot blot analysis (FIG. 4A).

ND2 310-321 = biological target: T5, ND2 310-321 (Homo sapiens, UniProt P03891); test: Dot blot of Src fragments probed with biotinylated ND2 310-321; type: binding; conditions: FIG. 5A
T5 construct: 7; NVKMKWQFEHTK
Procedure: as §1

[5] = test system: PACAP-enhanced NMDA-evoked currents in CA1 neurons; test: Patch clamp of PACAP-enhanced NMDA-evoked currents in isolated CA1 neurons; type: cell-based, rat; conditions: PACAP 1 nM in patch pipette, peptide 6 mM, 25 to 30 minutes after PACAP
Excerpt: Pituitary Adenylate Cyclase-activating Polypeptide (PACAP) selectively increases NMDA receptor mediated responses in rat neurons, and it is thought that this peptide is involved in the regulation of synaptic plasticity as well as both long term potentiation and depression. To examine the effect of ND2 310-321 and Src 40-49 on PACAP-enhanced NMDA-evoked currents, isolated CA1 neurons were subjected to a series of patch clamp experiments in the presence or absence of these peptides. […] ND2 310-321 can prevent PACAP-induced potentiation. Similar experiments were also performed using the Src-selective inhibitory peptide, Src(40-58) (14 mM), or the truncated peptide, Src(40-49) (6 mM). The responses prior to application of PACAP were normalized the responses at 25 to 30 minutes following application of PACAP. The bar graph indicates three groups of recordings from neurons and indicated the relative change in peak NMDAR currents under the three conditions. ND2 310-321, but not Src40-49, inhibits PACAP-enhanced NMDA-evoked currents. Thus, ND2 310-321 can be used to block PACAP enhanced NMDA-evoked signaling and can therefore be used in many neurological diseases and disorders associated with impaired with long term potentiation (e.g., aging, Alzheimer's, neurodegenerative diseases and neuronal disorders affect memory).

[6] = Arterial blood pressure after rapid high-dose intravenous bolus; conditions: ~25 mg/kg bolus injection into the tail vein
Procedure: Rats with surgically implanted devices to measure arterial pressure were dosed with ˜25 mg/kg of the respective peptides as a bolus injection into the tail vein at 10 minutes post monitoring.

Src 40-49 [7] = biological target: T4, Src 40-49; test: ELISA of ND2 constructs binding Src 40-49; conditions: FIG. 4B
Excerpt: as §3

[8] = biological target: T6, binding of biotinylated Src40-49 to ND2 310-321 (Homo sapiens, UniProt P03891+P12931); test: Competition ELISA, binding of biotinylated Src40-49 to coated ND2 310-321; conditions: FIG. 5D, FIG. 7
T6 construct: 7; NVKMKWQFEHTK; KPASADGHRG
Procedure: Competition ELISAs were also performed. […] In a similar manner, ND2 constructs bearing amino acid sequences from the 300-321 region are able to act as inhibitors of the interaction between ND2 and Src.

## myristoyl- MSNNVKMKWQFEHTK (Myristoyl-MSNNVKMKWQFEHTK) [Myr2-ND2]
Rats subjected to 3PVO; given intravenously 1 hour after onset of stroke, relative to Tat-ND2
  protection against damage from the stroke, second experiment (FIG. 22): equivalent or superior protection

## YGRKKRRQRRR [Tat]
[1]
  colocalization of Src and ND2: does not

## bio-Src 40-49: biotinylated Src 40-49 peptide (KPASADGHRG; also: biotinylated, position not given here)
Tat-ND2 310-321
  binding to coated Tat-ND2 310-321 (ELISA): able to bind in a concentration dependent manner

## STSITLLPMSNNVKMKWQFE [ND2 299-318]
Src 40-58 [2]
  binding of biotinylated Src 40-58 (dot blot): binding was seen
Src 40-58 [3]
  binding of biotin-Src 40-58 (ELISA): top binders

## Bio-sSrc 40-49: biotinylated scrambled control peptide (GAAKRPSDGH; also: biotinylated, position not given here)
Tat-ND2 310-321
  binding to coated Tat-ND2 310-321 (ELISA): no binding was seen

## MSNNVKMKWQFE [ND2 307-318]
Src 40-49 [4]
  binding of Src 40-49 (dot blot): top binders; also recorded: strong binding

## KPASADGHRG [Src40-49]
ND2 310-321
  binding of biotinylated ND2 310-321 (dot blot): bound ND2 310-321
[5]; listed as Src 40-49
  effect on PACAP-enhanced NMDA-evoked currents: does not

## YGRKKRRQRRRKLSSIESDV [Tat-NR2B9c]
[6]
  mean arterial blood pressure after bolus: about one half of normal
Rats subjected to 3PVO; 3 nmol/g intravenous one hour post-surgery, 24 hours after surgery, n=10
  decline in infarct volume: approximately 40%

## YGRKKRRQRRRNVKMKWQFEHTK [Tat-ND2 310-321]
[6]
  mean arterial blood pressure after bolus: about one half of normal

## NLYFYLRLIYSTSITLLPMSNNVKMKWQFEHTK (not fully specified) [ND2.1.4, GST-fusion protein of ND2 fragment AA 289-321]
Src 40-58 [2]
  binding of biotinylated Src 40-58 (dot blot): most effective sub fragment for binding Src 40-58
Src 40-58 [2]; listed as ND 2.1.4
  binding of biotinylated Src 40-58 (dot blot): better than ND2.1.3
Src 40-58 [3]
  binding of biotin-Src 40-58 (ELISA): concentration-dependent manner

## NVKMKWQFEHTK [ND2 310-321]
Src 40-58 [2]
  binding of biotinylated Src 40-58 (dot blot): binding with high relative affinity
Src 40-49 [4]
  binding of Src 40-49 (dot blot): top binders; also recorded: strong binding
Src 40-49 [7]
  binding of Src 40-49 (ELISA): strongest binding
Src 40-58 [3]
  binding of biotin-Src 40-58 (ELISA): top binders
[5]
  effect on PACAP-enhanced NMDA-evoked currents: inhibits

## NVKMKWQFE [ND2 310-318]
Src 40-49 [4]
  binding of Src 40-49 (dot blot): top binders; also recorded: strong binding

## NLYFYLRLIYSTSITLLPMSN [ND2 289-309]
Src 40-58 [2]
  binding of biotinylated Src 40-58 (dot blot): binding was seen
Src 40-58 [3]
  binding of biotin-Src 40-58 (ELISA): top binders

## YGRKKRRQRRRKPASADGHRG [Tat-Src40-49]
ND2 310-321
  binding of biotinylated ND2 310-321 (dot blot): bound ND2 310-321
[8]
  inhibition of binding of biotinylated Src40-49 to ND2 310-321 (competition ELISA): inhibited

## ITLLPMSNNVKMKWQFEHTK [ND2 302-321]
Src 40-58 [2]
  binding of biotinylated Src 40-58 (dot blot): binding was seen

## MSNNVKMKWQFEHTK [ND2 307-321]
Src 40-58 [2]
  binding of biotinylated Src 40-58 (dot blot): binding was seen
Src 40-58 [3]
  binding of biotin-Src 40-58 (ELISA): top binders

B1: ND2.1: GST-fusion protein of ND2 sub fragment AA239-321 (protein)
chain: WLTPLIPSTLLSLGGLPPLTGFLPKWAIIEEFTKNNSLIIPTIMATITLLNLYFYLRLIYSTSITLLPMSNNVKMKWQFEHTK
modifications: left off: a dimerising Fc or GST
Src 40-58 [2]
  binding of biotinylated Src 40-58 (dot blot): can also bind Src 40-58; also recorded: better than ND2.1.3
Src 40-58 [3]
  binding of biotin-Src 40-58 (ELISA): concentration-dependent manner
